According to publication PMC10350833:

What was measured:
GFP-p62^S349A (human) = GFP-p62^S349A (human) (UniProt Q13501)
GFP-p62^S349E (human) = GFP-p62^S349E (human) (UniProt Q13501)

Question: For “mCherry-tagged KEAP1 (from UniProt Q14145 1-624) (natural protein)”, which FLIP: signal intensity of mCherry-KEAP1 in GFP-p62 bodies of the non-bleached area, percent of the baseline value at 30 min after photobleaching (efflux of KEAP1) (GFP-p62^S349A (human)) is on record?
Answer: The FLIP: signal intensity of mCherry-KEAP1 in GFP-p62 bodies of the non-bleached area, percent of the baseline value at 30 min after photobleaching (efflux of KEAP1) was 58.2%.

Question: And the FLIP: signal intensity of mCherry-KEAP1 in GFP-p62 bodies of the non-bleached area, percent of the baseline value at 30 min after photobleaching (efflux of KEAP1) (GFP-p62^S349E (human))?
Answer: Its FLIP: signal intensity of mCherry-KEAP1 in GFP-p62 bodies of the non-bleached area, percent of the baseline value at 30 min after photobleaching (efflux of KEAP1) is 72%.
